Reference: US20160362487A1 (Regeneron, published 2016)
Changes are numbered by the printed parent chain. Numbers in names are those of the source.

T1: cynomolgus monkey IL-33 expressed with a C-terminal hexahistidine tag (cynomolgus monkey)
T1 construct: also called MfIL-33-6His; Mf-IL-33-6His
T1 chain: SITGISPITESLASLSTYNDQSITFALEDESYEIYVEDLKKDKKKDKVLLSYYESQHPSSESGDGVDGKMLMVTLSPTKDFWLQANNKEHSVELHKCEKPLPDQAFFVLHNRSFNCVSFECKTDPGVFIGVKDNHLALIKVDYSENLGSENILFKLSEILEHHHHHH

T2: human IL-33 (R&D Systems, #3625-IL-010/CF) (human, UniProt O95760 112-270)
T2 construct: Commercial recombinant protein; also called hIL-33; interleukin-33
T2 sequence (looked up): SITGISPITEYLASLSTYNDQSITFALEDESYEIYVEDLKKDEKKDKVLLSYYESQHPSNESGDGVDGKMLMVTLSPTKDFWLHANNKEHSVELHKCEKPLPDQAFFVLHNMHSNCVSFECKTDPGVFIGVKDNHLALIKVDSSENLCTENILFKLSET

T3: biotinylated hIL-33 protein (R&D systems, Cat #3625-IL/CF) (human, UniProt O95760 112-270, biotinylated (sites not given))
T3 construct: Same commercial protein as m21, biotin-labelled; also called biotin-hIL-33
T3 sequence (looked up): T2 sequence (looked up)

B1: H4H9675P (antibody, human IgG4, V domains shown)
VH: EVQLVESGGNLEQPGGSLRLSCTASGFTFSRSAMNWVRRAPGKGLEWVSGISGSGGRTYYADSVKGRFTISRDNSKNTLYLQMNSLSAEDTAAYYCAKDSYTTSWYGGMDVWGHGTTVTVSS
VL: DIQMTQSPSSVSASVGDRVTITCRASQGIFSWLAWYQQKPGKAPKLLIYAASSLQSGVPSRFSGSGSGTDFTLTISSLQPEDFAIYYCQQANSVPITFGQGTRLEIK
notes: Human IgG4 Fc (H4H)
B2: H1M9559N (antibody, mouse IgG1, V domains shown)
VH: QVQLVESGGGVVQPGRSLRLSCAASGFTFSSYGMHWVRQAPGKGLEWVAVIWYDGRNKYYTDSVKGRFTISRDNSKNTLYLQMDSLRAEDTAVYYCARERYISSYYGGFDPWGQGALVTVSS
VL: B1 VL with F30S, L46V, I85T, V94F, I96F, Q100P, R103K, E105D
notes: Human variable domains, mouse IgG1 Fc (H1M)
B3: H4H9672P (antibody, human IgG4, V domains shown)
VH: EVQLVESGGGLVQPGGSLRLSCAASGFTLRSYVMYWVRQGPGKGLEGVSGISGSSGGTYYTDSVKGRFTISRDNSKNTLFLQMNSLRAEDTAVYFCARSVYSTTWYGGFQHWGQGTLVTVSS
VL: DIQMTQSPSSVSVSVGDRVTITCRASQVISSWLAWYQLKPGKAPKLLIYAASSLQSGVPSRFSGSGSGTDFTLTISGLQPEDFAVYYCQQTNSFPLTFGGGTKVEIK
notes: Human IgG4 Fc (H4H)
B4: H4H9676P (antibody, human IgG4, V domains shown)
VH: EVQLVESGGGLVQPGGSLRLSCSASGFTFSSYAMNWVRQAPGKGLEWVTAISGSGGGTYYADSVKGRFTISRDNSKNSLFLQLNSLRAEDTAVYYCAKQTYTSSWYGGFDIWGQGTMVTVSS
VL: B3 VL with V13A, V28G, I29F, L38Q, K39I, S53R, S63R, G77S, V85T, T91A
notes: Human IgG4 Fc (H4H)

Assays:
[1] = target: T1, cynomolgus monkey IL-33 expressed with …; assay: SPR 37C pH7.4, mAb captured
Protocol: (§1) Equilibrium dissociation constants (KD values) for IL-33 binding to purified anti-IL-33 monoclonal antibodies were determined using a real-time surface plasmon resonance biosensor using a Biacore 4000 instrument. The Biacore sensor surface was first derivatized by amine coupling with either a polyclonal rabbit anti-mouse antibody (GE, # BR-1008-38) or with a monoclonal mouse anti-human Fc antibody (GE, # BR-1008-39) to capture anti-IL-33 monoclonal antibodies expressed with mouse or with human IgG4 constant regions, respectively. All Biacore binding studies were performed in 0.01M ADA pH 7.4, 0.15M NaCl, 3 mM EDTA, and 0.05% v/v Surfactant Tween-20 (ABS-ET running buffer). […] Association of either hIL-33 or MfIL-33-6His to the captured monoclonal antibody was monitored for 4 minutes and their dissociation in ABS-ET running buffer was monitored for 10 minutes. The effect of reduced pH on the binding of each anti-IL-33 antibody to either hIL-33 or MfIL-33-6His was studied using an in-line pH chase assay format in 0.01M ADA pH 6.0, 0.15M NaCl, 3 mM EDTA, and 0.05% v/v Surfactant Tween-20 (ABS-ET pH6 buffer). To achieve this, association of either hIL-33 or MfIL-33-6His to the captured monoclonal antibody was monitored for 4 minutes in ABS-ET running buffer. Following a 30 second dissociation of either hIL-33 or MfIL-33-6His in ABS-ET running buffer, ABS-ET pH6 buffer was injected for 3 minutes, and the analyte dissociation under the low-pH conditions was measured. All the binding kinetic experiments were performed at both 25° C. and 37° C. Kinetic association (kₐ) and dissociation (kd) constants were determined by fitting the real-time sensorgrams to a 1:1 binding model using Scrubber 2.0c curve fitting software. Binding dissociation equilibrium constants (KD) and dissociative half-lives (t½) were calculated from the kinetic rate constants as: […]

[2] = target: T2, human IL-33 (R&D Systems, …); assay: SPR 37C pH7.4, mAb captured
Protocol: as §1

[3] = target: T2, human IL-33 (R&D Systems, …); assay: BLI; hIL-33 pre-mixed with mAb-2 H1M9565N
Protocol: Binding competition between a panel of different anti-IL-33 monoclonal antibodies was determined using a real time, label-free bio-layer interferometry assay on an Octet® HTX biosensor (ForteBio, A Division of Pall Life Sciences). The experiment was performed at 25° C. using a buffer of 0.01M HEPES pH7.4, 0.15M NaCl, 0.05% v/v Surfactant Tween-20, and 0.1 mg/ml BSA (HBS-ET kinetics buffer) with the plate shaking at a speed of 1000 rpm. To assess whether two antibodies were able to compete with one another for binding to human IL-33, a pre-mix assay format was used where 100 nM of human IL-33 (R&D Systems; #3625-IL-010/CF) was pre-mixed with 500 nM of different anti-IL-33 monoclonal antibodies (subsequently referred to as mAb-2) for at least 2 hours prior to running the binding competition assay. […] Following the capture step, unoccupied anti-mouse Fc polyclonal antibody and anti-human Fc polyclonal antibody on the Octet biosensors were saturated by submerging them for 4 minutes into wells containing 200 μg/mL of a non-specific monoclonal antibody with a mouse Fc or with a human Fc, respectively. Finally, the Octet biosensors were immersed for 4 minutes into wells containing the pre-mixed samples of 100 nM of human IL-33 and 500 nM of mAb-2. At the end of each cycle, the non-covalently captured anti-IL-33 antibodies along with the bound pre-complex of human IL-33 and mAb-2 were removed from the biosensors using three alternate 20 second immersions into 10 mM HCl followed by submerging into HBS-ET kinetics buffer. The biosensors were washed in HBS-ET kinetics buffer in between every step of the experiment. The real-time binding response was monitored during the binding events, and the binding response (in units of nm) at the end of every step was recorded.

[4] = target: T3, biotinylated hIL-33 protein (R&D …); assay: competition ELISA, 30 pM biotin-hIL-33 on coated hST2-hFc
Protocol: The ability of anti-IL-33 antibodies to block either human IL-33 (hIL-33) or cynomologus monkey IL-33 binding to the human ST2 receptor was measured using a competition sandwich ELISA. […] The antibody/IL-33 mixtures were incubated for 1 hour at room temperature before they were transferred to the hST2-hFc-coated microtiter plates. After incubating for 1 hour at room temperature, the wells were then washed, and plate-bound biotin-hIL-33 was detected with streptavidin conjugated with horse-radish peroxidase (HRP) (Thermo Scientific, Cat # N200), and plate-bound MfIL-33-6His was detected with a HRP conjugated anti-His monoclonal antibody (Qiagen, #34460). All samples were developed with a TMB solution (BD biosciences, #51-2607KC) to produce a colorimetric reaction and then quenched by acidification with 1M sulfuric acid before measuring absorbance at 450 nm on a Victor X5 plate reader. Data analysis was performed using a sigmoidal dose-response model within Prism™ software. […] Percent blockade was calculated as the ratio of the reduction in signal observed in the presence of antibody relative to the difference between the signal with IL-33 alone and background (signal from HRP-conjugated secondary antibody or streptavidin alone). The absorbance measured for the constant concentration of biotin-hIL-33 or MfIL-33-6His alone is defined as 0% blocking and the absorbance measured for no added IL-33 is defined as 100% blocking.

Binder | Kd [1] [nM] | koff [1] [s⁻¹] | kon [1] [M⁻¹ s⁻¹] | t½ [1] [min] | Kd [2] [nM] | koff [2] [s⁻¹] | kon [2] [M⁻¹ s⁻¹] | t½ [2] [min] | mAb-1 Binding to the Pre-complex of mAb-2 & hIL-33 [3] [nm] | % Maximum blocking [4] [%] | IC50 [4] [nM]
B1 | 4.81 | 0.00491 | 1.02e+06 | 2.4 | 0.411 | 0.000872 | 2.12e+06 | 13 | 0.51 | 58 | 0.44
B2 | 7.04 | 0.00347 | 493000 | 3.3 | 2.03 | 0.000962 | 473000 | 12 | 0.35 | 88 | 0.14
B3 | 13.7 | 0.013 | 946000 | 0.9 | 1.05 | 0.00115 | 1.09e+06 | 10 | 0.52 | 63 | 0.44
B4 | 7.7 | 0.0144 | 1.87e+06 | 0.8 | 0.922 | 0.00128 | 1.38e+06 | 9 | 0.45 | 54 | 0.46
